Target: T1, phospholamban (PLN) (UniProt P26678 1-52)
T1 construct: phospholamban, overexpressed
T1 sequence (looked up): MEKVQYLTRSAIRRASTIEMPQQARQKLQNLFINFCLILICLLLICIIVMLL
Test: co-IP; IP experiments in overexpression systems, told in the discussion only, data not shown; which partner was precipitated is not told
Conditions: partners not purified

B1: acetylation-mimic mutant of K328 SERCA2a (K328Q) (natural protein, UniProt P16615-2 1-997, looked up)
chain: MENAHTKTVEEVLGHFGVNESTGLSLEQVKKLKERWGSNELPAEEGKTLLELVIEQFEDLLVRILLLAACISFVLAWFEEGEETITAFVEPFVILLILVANAIVGVWQERNAENAIEALKEYEPEMGKVYRQDRKSVQRIKAKDIVPGDIVEIAVGDKVPADIRLTSIKSTTLRVDQSILTGESVSVIKHTDPVPDPRAVNQDKKNMLFSGTNIAAGKAMGVVVATGVNTEIGKIRDEMVATEQERTPLQQKLDEFGEQLSKVISLICIAVWIINIGHFNDPVHGGSWIRGAIYYFKIAVALAVAAIPEGLPAVITTCLALGTRRMAQKNAIVRSLPSVETLGCTSVICSDKTGTLTTNQMSVCRMFILDRVEGDTCSLNEFTITGSTYAPIGEVHKDDKPVNCHQYDGLVELATICALCNDSALDYNEAKGVYEKVGEATETALTCLVEKMNVFDTELKGLSKIERANACNSVIKQLMKKEFTLEFSRDRKSMSVYCTPNKPSRTSMSKMFVKGAPEGVIDRCTHIRVGSTKVPMTSGVKQKIMSVIREWGSGSDTLRCLALATHDNPLRREEMHLEDSANFIKYETNLTFVGCVGMLDPPRIEVASSVKLCRQAGIRVIMITGDNKGTAVAICRRIGIFGQDEDVTSKAFTGREFDELNPSAQRDACLNARCFARVEPSHKSKIVEFLQSFDEITAMTGDGVNDAPALKKAEIGIAMGSGTAVAKTASEMVLADDNFSTIVAAVEEGRAIYNNMKQFIRYLISSNVGEVVCIFLTAALGFPEALIPVQLLWVNLVTDGLPATALGFNPPDLDIMNKPPRNPKEPLISGWLFFRYLAIGCYVGAATVGAAAWWFIAADGGPRVSFYQLSHFLQCKEDNPDFEGVDCAIFESPYPMTMALSVLVTIEMCNALNSLSENQSLLRMPPWENIWLVGSICLSMSLHFLILYVEPLPLIFQITPLNVTQWLMVLKISLPVILMDETLKFVARNYLEPAILE
notes: SERCA2a with lysine 328 exchanged for glutamine to mimic acetylation; The mutants were expressed from plasmids in HEK293 cells for the ATPase assays; also called K328Q SERCA2a
fold change of affinity against wild-type SERCA2a: ~2.5 fold
